# Test results reported in US20040167319A1 (Genmab, published 2004).
# Biological target: human CD20 (human) (UniProt P11836)
# Test: dissociation of 125I-labelled F(ab)2 fragments from Ramos-EHRB cells, initial binding set at 100%
# human CD20 (human), sequence (P11836 whole entry, the tested form may be a part): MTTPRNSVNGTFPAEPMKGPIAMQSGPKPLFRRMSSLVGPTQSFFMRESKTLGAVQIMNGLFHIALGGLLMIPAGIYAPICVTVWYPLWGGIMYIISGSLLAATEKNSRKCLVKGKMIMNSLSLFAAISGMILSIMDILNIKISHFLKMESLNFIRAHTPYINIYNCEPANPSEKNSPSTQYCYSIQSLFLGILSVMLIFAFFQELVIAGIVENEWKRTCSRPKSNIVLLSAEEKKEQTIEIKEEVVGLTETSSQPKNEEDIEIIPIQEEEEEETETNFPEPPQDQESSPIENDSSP
substance,measurement,value
F(ab′)2 fragment of rituximab,percent still bound at 90 min,50%
